Assays:
[1] = biological target: T1, Cre recombinase monomer with R292Q mutation
T1 chain: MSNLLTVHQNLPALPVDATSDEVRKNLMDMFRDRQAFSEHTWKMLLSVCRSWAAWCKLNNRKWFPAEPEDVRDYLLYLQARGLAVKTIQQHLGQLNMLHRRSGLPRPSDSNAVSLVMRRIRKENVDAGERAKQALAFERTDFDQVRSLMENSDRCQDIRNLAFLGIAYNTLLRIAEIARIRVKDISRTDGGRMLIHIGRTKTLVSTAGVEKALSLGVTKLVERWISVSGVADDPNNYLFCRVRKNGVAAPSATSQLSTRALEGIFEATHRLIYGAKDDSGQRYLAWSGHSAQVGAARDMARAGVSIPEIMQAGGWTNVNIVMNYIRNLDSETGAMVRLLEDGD

[2] = biological target: T2, Cre recombinase monomer with Q311R mutation
T2 chain: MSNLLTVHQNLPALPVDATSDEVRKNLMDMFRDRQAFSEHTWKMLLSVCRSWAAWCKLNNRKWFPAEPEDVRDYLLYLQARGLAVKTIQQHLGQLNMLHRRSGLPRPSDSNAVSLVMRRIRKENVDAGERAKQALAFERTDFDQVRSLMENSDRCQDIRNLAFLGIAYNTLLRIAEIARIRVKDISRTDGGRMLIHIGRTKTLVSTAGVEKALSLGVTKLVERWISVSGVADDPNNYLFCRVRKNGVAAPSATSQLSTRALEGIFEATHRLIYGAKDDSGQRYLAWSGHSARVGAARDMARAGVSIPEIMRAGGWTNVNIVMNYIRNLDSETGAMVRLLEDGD

[3] = biological target: T3, Cre recombinase monomer with Y324I mutation
T3 chain: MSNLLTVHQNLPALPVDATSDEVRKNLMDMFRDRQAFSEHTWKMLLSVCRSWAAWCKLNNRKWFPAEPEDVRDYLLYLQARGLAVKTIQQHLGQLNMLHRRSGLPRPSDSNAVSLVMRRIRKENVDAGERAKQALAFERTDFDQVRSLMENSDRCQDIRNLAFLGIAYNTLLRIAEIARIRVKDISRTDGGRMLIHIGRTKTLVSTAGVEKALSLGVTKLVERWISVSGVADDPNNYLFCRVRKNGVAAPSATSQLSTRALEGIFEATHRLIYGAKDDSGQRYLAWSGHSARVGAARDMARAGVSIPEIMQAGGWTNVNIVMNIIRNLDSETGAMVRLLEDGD

[4] = biological target: T4, Cre recombinase monomer with K201Q mutation
T4 chain: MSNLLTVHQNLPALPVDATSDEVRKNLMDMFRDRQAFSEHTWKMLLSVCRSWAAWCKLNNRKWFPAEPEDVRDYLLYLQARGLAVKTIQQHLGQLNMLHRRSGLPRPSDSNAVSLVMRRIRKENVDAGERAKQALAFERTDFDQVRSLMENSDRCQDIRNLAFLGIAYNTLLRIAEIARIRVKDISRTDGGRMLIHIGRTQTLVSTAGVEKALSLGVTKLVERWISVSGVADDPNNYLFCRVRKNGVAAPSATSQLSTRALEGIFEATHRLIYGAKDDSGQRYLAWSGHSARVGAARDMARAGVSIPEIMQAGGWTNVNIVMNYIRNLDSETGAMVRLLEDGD

[5] = biological target: T5, Cre recombinase monomer with Y324R mutation
T5 chain: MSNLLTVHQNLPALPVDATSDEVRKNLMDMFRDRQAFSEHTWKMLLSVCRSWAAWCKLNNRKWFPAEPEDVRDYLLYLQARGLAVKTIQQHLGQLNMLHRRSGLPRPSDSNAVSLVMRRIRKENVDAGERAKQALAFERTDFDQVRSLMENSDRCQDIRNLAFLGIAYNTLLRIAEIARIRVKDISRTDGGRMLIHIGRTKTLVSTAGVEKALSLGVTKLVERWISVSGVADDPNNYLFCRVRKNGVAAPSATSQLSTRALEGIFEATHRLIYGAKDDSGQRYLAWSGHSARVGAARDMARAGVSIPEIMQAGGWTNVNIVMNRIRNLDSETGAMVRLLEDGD

[6] = biological target: T6, Cre recombinase monomer with Y324T mutation
T6 chain: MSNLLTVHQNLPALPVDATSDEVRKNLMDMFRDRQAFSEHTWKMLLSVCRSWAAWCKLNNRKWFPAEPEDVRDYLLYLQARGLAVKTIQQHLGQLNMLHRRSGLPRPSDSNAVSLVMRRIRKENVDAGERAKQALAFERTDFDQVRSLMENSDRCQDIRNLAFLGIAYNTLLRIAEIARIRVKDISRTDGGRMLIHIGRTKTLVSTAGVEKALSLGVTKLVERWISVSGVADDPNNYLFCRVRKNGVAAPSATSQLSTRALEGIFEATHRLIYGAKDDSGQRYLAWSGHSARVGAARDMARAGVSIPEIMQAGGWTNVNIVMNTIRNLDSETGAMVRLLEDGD

[7] = biological target: T7, Cre recombinase monomer with Y324N mutation
T7 chain: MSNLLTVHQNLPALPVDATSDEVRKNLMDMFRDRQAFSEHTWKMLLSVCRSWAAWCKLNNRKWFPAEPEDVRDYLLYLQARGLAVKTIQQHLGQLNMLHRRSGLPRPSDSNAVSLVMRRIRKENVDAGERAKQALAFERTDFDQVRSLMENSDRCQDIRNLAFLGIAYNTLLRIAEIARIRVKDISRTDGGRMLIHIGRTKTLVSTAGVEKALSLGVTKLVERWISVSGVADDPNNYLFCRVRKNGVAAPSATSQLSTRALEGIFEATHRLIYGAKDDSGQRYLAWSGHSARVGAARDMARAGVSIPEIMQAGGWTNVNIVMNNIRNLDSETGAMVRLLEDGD

[8] = biological target: T8, Cre recombinase monomer with Y324S mutation
T8 chain: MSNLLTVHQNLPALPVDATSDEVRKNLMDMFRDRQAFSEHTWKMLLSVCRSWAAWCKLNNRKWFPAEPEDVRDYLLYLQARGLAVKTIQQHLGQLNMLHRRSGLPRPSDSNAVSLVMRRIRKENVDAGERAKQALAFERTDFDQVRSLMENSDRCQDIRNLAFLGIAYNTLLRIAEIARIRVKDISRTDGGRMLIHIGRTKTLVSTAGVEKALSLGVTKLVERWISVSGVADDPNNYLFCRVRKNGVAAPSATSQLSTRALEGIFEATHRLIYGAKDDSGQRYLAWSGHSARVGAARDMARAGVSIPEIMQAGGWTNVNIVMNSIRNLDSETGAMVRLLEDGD

[9] = biological target: T9, Cre recombinase monomer with W315N mutation
T9 chain: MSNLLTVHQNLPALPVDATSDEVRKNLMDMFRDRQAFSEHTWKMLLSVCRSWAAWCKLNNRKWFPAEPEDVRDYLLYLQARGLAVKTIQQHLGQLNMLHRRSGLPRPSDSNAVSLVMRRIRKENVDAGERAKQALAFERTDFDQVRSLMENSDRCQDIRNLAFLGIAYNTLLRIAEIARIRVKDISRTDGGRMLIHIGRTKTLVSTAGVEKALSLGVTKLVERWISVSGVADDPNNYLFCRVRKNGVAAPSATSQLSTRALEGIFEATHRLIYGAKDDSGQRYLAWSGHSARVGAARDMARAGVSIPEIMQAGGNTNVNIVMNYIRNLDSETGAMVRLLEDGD

[10] = biological target: T10, Cre recombinase monomer with R292A mutation
T10 chain: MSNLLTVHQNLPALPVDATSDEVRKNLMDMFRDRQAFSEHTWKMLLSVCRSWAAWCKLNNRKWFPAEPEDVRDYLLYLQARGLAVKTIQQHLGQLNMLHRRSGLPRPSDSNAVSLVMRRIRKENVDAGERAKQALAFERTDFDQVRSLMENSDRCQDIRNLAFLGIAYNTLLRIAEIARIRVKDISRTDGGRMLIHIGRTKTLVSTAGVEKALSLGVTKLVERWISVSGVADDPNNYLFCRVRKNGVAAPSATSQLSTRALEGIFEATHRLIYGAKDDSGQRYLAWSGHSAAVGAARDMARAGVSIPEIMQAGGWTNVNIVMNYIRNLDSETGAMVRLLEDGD

B1: Cre recombinase monomer with K201C mutation (protein)
chain: MSNLLTVHQNLPALPVDATSDEVRKNLMDMFRDRQAFSEHTWKMLLSVCRSWAAWCKLNNRKWFPAEPEDVRDYLLYLQARGLAVKTIQQHLGQLNMLHRRSGLPRPSDSNAVSLVMRRIRKENVDAGERAKQALAFERTDFDQVRSLMENSDRCQDIRNLAFLGIAYNTLLRIAEIARIRVKDISRTDGGRMLIHIGRTCTLVSTAGVEKALSLGVTKLVERWISVSGVADDPNNYLFCRVRKNGVAAPSATSQLSTRALEGIFEATHRLIYGAKDDSGQRYLAWSGHSARVGAARDMARAGVSIPEIMQAGGWTNVNIVMNYIRNLDSETGAMVRLLEDGD
Median dimer activity (recombination on loxP) [1]: 52% | Median dimer activity (recombination on loxP) [2]: 93%

B2: Cre recombinase monomer with R292E mutation (protein)
chain: MSNLLTVHQNLPALPVDATSDEVRKNLMDMFRDRQAFSEHTWKMLLSVCRSWAAWCKLNNRKWFPAEPEDVRDYLLYLQARGLAVKTIQQHLGQLNMLHRRSGLPRPSDSNAVSLVMRRIRKENVDAGERAKQALAFERTDFDQVRSLMENSDRCQDIRNLAFLGIAYNTLLRIAEIARIRVKDISRTDGGRMLIHIGRTKTLVSTAGVEKALSLGVTKLVERWISVSGVADDPNNYLFCRVRKNGVAAPSATSQLSTRALEGIFEATHRLIYGAKDDSGQRYLAWSGHSAEVGAARDMARAGVSIPEIMQAGGWTNVNIVMNYIRNLDSETGAMVRLLEDGD
Median dimer activity (recombination on loxP) [3]: 70% | Median dimer activity (recombination on loxP) [2]: 50%

B3: Cre recombinase monomer with E176W mutation (protein)
chain: MSNLLTVHQNLPALPVDATSDEVRKNLMDMFRDRQAFSEHTWKMLLSVCRSWAAWCKLNNRKWFPAEPEDVRDYLLYLQARGLAVKTIQQHLGQLNMLHRRSGLPRPSDSNAVSLVMRRIRKENVDAGERAKQALAFERTDFDQVRSLMENSDRCQDIRNLAFLGIAYNTLLRIAWIARIRVKDISRTDGGRMLIHIGRTKTLVSTAGVEKALSLGVTKLVERWISVSGVADDPNNYLFCRVRKNGVAAPSATSQLSTRALEGIFEATHRLIYGAKDDSGQRYLAWSGHSARVGAARDMARAGVSIPEIMQAGGWTNVNIVMNYIRNLDSETGAMVRLLEDGD
Median dimer activity (recombination on loxP) [2]: 90% | Median dimer activity (recombination on loxP) [4]: 28%

B4: Cre recombinase monomer with W315C mutation (protein)
chain: MSNLLTVHQNLPALPVDATSDEVRKNLMDMFRDRQAFSEHTWKMLLSVCRSWAAWCKLNNRKWFPAEPEDVRDYLLYLQARGLAVKTIQQHLGQLNMLHRRSGLPRPSDSNAVSLVMRRIRKENVDAGERAKQALAFERTDFDQVRSLMENSDRCQDIRNLAFLGIAYNTLLRIAEIARIRVKDISRTDGGRMLIHIGRTKTLVSTAGVEKALSLGVTKLVERWISVSGVADDPNNYLFCRVRKNGVAAPSATSQLSTRALEGIFEATHRLIYGAKDDSGQRYLAWSGHSARVGAARDMARAGVSIPEIMQAGGCTNVNIVMNYIRNLDSETGAMVRLLEDGD
Median dimer activity (recombination on loxP) [5]: 31% | Median dimer activity (recombination on loxP) [6]: 36% | Median dimer activity (recombination on loxP) [7]: 38%

B5: Cre recombinase monomer with W315E mutation (protein)
chain: MSNLLTVHQNLPALPVDATSDEVRKNLMDMFRDRQAFSEHTWKMLLSVCRSWAAWCKLNNRKWFPAEPEDVRDYLLYLQARGLAVKTIQQHLGQLNMLHRRSGLPRPSDSNAVSLVMRRIRKENVDAGERAKQALAFERTDFDQVRSLMENSDRCQDIRNLAFLGIAYNTLLRIAEIARIRVKDISRTDGGRMLIHIGRTKTLVSTAGVEKALSLGVTKLVERWISVSGVADDPNNYLFCRVRKNGVAAPSATSQLSTRALEGIFEATHRLIYGAKDDSGQRYLAWSGHSARVGAARDMARAGVSIPEIMQAGGETNVNIVMNYIRNLDSETGAMVRLLEDGD
Median dimer activity (recombination on loxP) [8]: 35%

B6: Cre recombinase monomer with Q133H mutation (protein)
chain: MSNLLTVHQNLPALPVDATSDEVRKNLMDMFRDRQAFSEHTWKMLLSVCRSWAAWCKLNNRKWFPAEPEDVRDYLLYLQARGLAVKTIQQHLGQLNMLHRRSGLPRPSDSNAVSLVMRRIRKENVDAGERAKHALAFERTDFDQVRSLMENSDRCQDIRNLAFLGIAYNTLLRIAEIARIRVKDISRTDGGRMLIHIGRTKTLVSTAGVEKALSLGVTKLVERWISVSGVADDPNNYLFCRVRKNGVAAPSATSQLSTRALEGIFEATHRLIYGAKDDSGQRYLAWSGHSARVGAARDMARAGVSIPEIMQAGGWTNVNIVMNYIRNLDSETGAMVRLLEDGD
Median dimer activity (recombination on loxP) [9]: 33% | Median dimer activity (recombination on loxP) [10]: 48% | Median dimer activity (recombination on loxP) [2]: 96%

From US20230183713A1, “SITE-SPECIFIC RECOMBINASES FOR EFFICIENT AND SPECIFIC GENOME EDITING” (TECHNISCHE UNIVERSITÄt DRESDEN, published 2023)
